From US20210284709A1 (JUNO THERAPEUTICS, published 2021) come the findings set out here.

B1: TCR 34 (codon-optimized, cysteine-modified) (TCR, V domains shown)
V domain 1: ELKVEQNPLFLSMQEGKNYTIYCNYSTTSDRLYWYRQDPGKSLESLFVLLSNGAVKQEGRLMASLDTKARLSTLHITAAVHDLSATYFCAVSGTYKYIFGTGTRLKVLA
V domain 2: ETGVTQSPTHLIKTRGQQVTLRCSSQSGHNTVSWYQQALGQGPQFIFQYYREEENGRGNFPPRFSGLQFPNYSSELNVNALELDDSALYLCASSSYAGSYEQYFGPGTRLTVTE
B2: TCR 46 (codon-optimized, cysteine-modified) (TCR, V domains shown)
V domain 1: AQSVTQLDSQVPVFEEAPVELRCNYSSSVSVYLFWYVQYPNQGLQLLLKYLSGSTLVKGINGFEAEFNKSQTSFHLRKPSVHISDTAEYFCAVSPSSGTYKYIFGTGTRLKVLA
V domain 2: GAGVSQTPSNKVTEKGKYVELRCDPISGHTALYWYRQSLGQGPEFLIYFQGTGAADDSGLPNDRFFAVRPEGSVSTLKIQRTERGDSAVYLCASSLYLGGSETQYFGPGTRLLVLE
B3: TCR 39 (codon-optimized, cysteine-modified) (TCR, V domains shown)
V domain 1: GQQLNQSPQSMFIQEGEDVSMNCTSSSIFNTWLWYKQEPGEGPVLLIALYKAGELTSNGRLTAQFGITRKDSFLNISASIPSDVGIYFCAGYSSSNDYKLSFGAGTTVTVRA
V domain 2: EPEVTQTPSHQVTQMGQEVILRCVPISNHLYFYWYRQILGQKVEFLVSFYNNEISEKSEIFDDQFSVERPDGSNFTLKIRSTKLEDSAMYFCASTPRDRGKEAFFGQGTRLTVVE
B4: TCR 37 (codon-optimized, cysteine-modified) (TCR, V domains shown)
V domain 1: ELKVEQNPLFLSMQEGKNYTIYCNYSTTSDRLYWYRQDPGKSLESLFVLLSNGAVKQEGRLMASLDTKARLSTLHITAAVHDLSATYFCAGYSGAGSYQLTFGKGTKLSVIP
V domain 2: GAGVSQSPRYKVAKRGQDVALRCDPISGHVSLFWYQQALGQGPEFLTYFQNEAQLDKSGLPSDRFFAERPEGSVSTLKIQRTQQEDSAVYLCASSLLLGAYGYTFGSGTRLTVVE
B5: TCR 41 (codon-optimized, cysteine-modified) (TCR, V domains shown)
V domain 1: RKEVEQDPGPFNVPEGATVAFNCTYSNSASQSFFWYRQDCRKEPKLLMSVYSSGNEDGRFTAQLNRASQYISLLIRDSKLSDSATYLCVVTFALTGGFKTIFGAGTRLFVKA
V domain 2: EPEVTQTPSHQVTQMGQEVILRCVPISNHLYFYWYRQILGQKVEFLVSFYNNEISEKSEIFDDQFSVERPDGSNFTLKIRSTKLEDSAMYFCASNPRDRVSYEQYFGPGTRLTVTE
B6: TCR 43 (codon-optimized, cysteine-modified) (TCR, V domains shown)
V domain 1: QKEVEQNSGPLSVPEGAIASLNCTYSDRGSQSFFWYRQYSGKSPELIMFIYSNGDKEDGRFTAQLNKASQYVSLLIRDSQPSDSATYLCAVNVPTSGTYKYIFGTGTRLKVLA
V domain 2: EPEVTQTPSHQVTQMGQEVILRCVPISNHLYFYWYRQILGQKVEFLVSFYNNEISEKSEIFDDQFSVERPDGSNFTLKIRSTKLEDSAMYFCASTPRDSYEQYFGPGTRLTVTE
B7: TCR 36 (codon-optimized, cysteine-modified) (TCR, V domains shown)
V domain 1: RKEVEQDPGPFNVPEGATVAFNCTYSNSASQSFFWYRQDCRKEPKLLMSVYSSGNEDGRFTAQLNRASQYISLLIRDSKLSDSATYLCVVNRDNYGQNFVFGPGTRLSVLP
V domain 2: B6 V domain 2 with S94M, P96G, D98S, S99N
B8: TCR 40 (codon-optimized, cysteine-modified) (TCR, V domains shown)
V domain 1: GQQVMQIPQYQHVQEGEDFTTYCNSSTTLSNIQWYKQRPGGHPVFLIQLVKSGEVKKQKRLTFQFGEAKKNSSLHITATQTTDVGTYFCAGRNNFNKFYFGSGTKLNVKP
V domain 2: B6 V domain 2 with S94I, P96A, D98S
B9: TCR 47 (codon-optimized, cysteine-modified) (TCR, V domains shown)
V domain 1: QKEVEQNSGPLSVPEGAIASLNCTYSDRGSQSFFWYRQYSGKSPELIMFIYSNGDKEDGRFTAQLNKASQYVSLLIRDSQPSDSATYLCAVNLLSGSARQLTFGSGTQLTVLP
V domain 2: B6 V domain 2 with S94M, P96G, D98T, S99T
B10: TCR 49 (codon-optimized, cysteine-modified) (TCR, V domains shown)
V domain 1: B6 V domain 1 with V93I, P94G
V domain 2: B6 V domain 2 with D98Y
B11: TCR 33 (codon-optimized, cysteine-modified) (TCR, V domains shown)
V domain 1: B6 V domain 1 with V93A, P94H, T95H, S96T, T98G, Y99F, Y101T, T105A, K110F, L112K
V domain 2: B6 V domain 2 with S99T
B12: TCR 42 (codon-optimized, cysteine-modified) (TCR, V domains shown)
V domain 1: B8 V domain 1 with R92P, N93D
V domain 2: B6 V domain 2 with S94K, P96S, D98S
B13: TCR 35 (codon-optimized, cysteine-modified) (TCR, V domains shown)
V domain 1: KDQVFQPSTVASSEGAVVEIFCNHSVSNAYNFFWYLHFPGCAPRLLVKGSKPSQQGRYNMTYERFSSSLLILQVREADAAVYYCAVAGDYKLSFGAGTTVTVRA
V domain 2: DSGVTQTPKHLITATGQRVTLRCSPRSGDLSVYWYQQSLDQGLQFLIQYYNGEERAKGNILERFSAQQFPDLHSELNLSSLELGDSALYFCASTTSGDSSYNEQFFGPGTRLTVLE
B14: TCR 45 (codon-optimized, cysteine-modified) (TCR, V domains shown)
V domain 1: GQQVMQIPQYQHVQEGEDFTTYCNSSTTLSNIQWYKQRPGGHPVFLIQLVKSGEVKKQKRLTFQFGEAKKNSSLHITATQTTDVGTYFCAGSSGAGSYQLTFGKGTKLSVIP
V domain 2: GAGVSQSPSNKVTEKGKDVELRCDPISGHTALYWYRQRLGQGLEFLIYFQGNSAPDKSGLPSDRFSAERTGESVSTLTIQRTQQEDSAVYLCASSLYLGTTGELFFGEGSRLTVLE
B15: TCR 44 (codon-optimized, cysteine-modified) (TCR, V domains shown)
V domain 1: GQNIDQPTEMTATEGAIVQINCTYQTSGFNGLFWYQQHAGEAPTFLSYNVLDGLEEKGRFSSFLSRSKGYSYLLLKELQMKDSASYLCAQYSGGYQKVTFGTGTKLQVIP
V domain 2: DSGVTQTPKHLITATGQRVTLRCSPRSGDLSVYWYQQSLDQGLQFLIQYYNGEERAKGNILERFSAQQFPDLHSELNLSSLELGDSALYFCASSGTPDTQYFGPGTRLTVLE

Residue numbers refer to the chain shown, from its start.

The assay concerns the target T1, HLA-A2/E7(11-19) tetramer (human; HPV 16).
T1 construct: also called E7(11-19) peptide-MHC tetramer; E7 tet
Nature of the assay: flow cytometry, tetramer + anti-CD8; transfected mix of CD8- and CD8+ Jurkat-derived cells.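 Further: cells transiently transfected with TCR-encoding plasmids, analysed 48 h afterwards by co-staining with HLA-A*02:01 peptide tetramer and anti-CD8 antibody.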 A general note: A flow cytometer gives signals particle by particle.
Procedure: For transfection, the CD4+ and CD4+/CD8+ cell mixtures were transiently transfected with TCR-encoding plasmids and 48 hours after transfection, cells were assessed by flow cytometry for (1) binding of the target peptide in the context of an MHC molecule (HLA:A02:01) by staining with an E6(29-38) peptide- or an E7(11-19) peptide-MHC tetramer reagent, and/or (2) CD8+ independent binding of the target by co-staining the tetramer-labeled cells with an anti-CD8 antibody.
B1: the “% cells E7 tet+/CD8+ quadrant” value amounted to 26.3% and the “% cells E7 tet+/CD8- quadrant” value came out at 26%.

For the molecule B2, the “% cells E7 tet+/CD8+ quadrant” value is 1.27% and the “% cells E7 tet+/CD8- quadrant” value was 1.21%.

For the molecule B3, the “% cells E7 tet+/CD8+ quadrant” value worked out at 12.3% and the “% cells E7 tet+/CD8- quadrant” value came to 2.61%.

With B4, the “% cells E7 tet+/CD8+ quadrant” value came to 25.5% and the “% cells E7 tet+/CD8- quadrant” value stood at 19.5%.

As to B5, the “% cells E7 tet+/CD8+ quadrant” value was found to be 6.07% and the “% cells E7 tet+/CD8- quadrant” value worked out at 2.41%.

Take B6: the “% cells E7 tet+/CD8+ quadrant” value worked out at 3.82% and the “% cells E7 tet+/CD8- quadrant” value turned out to be 1.88%.

With B7, the “% cells E7 tet+/CD8+ quadrant” value came out at 23.4% and the “% cells E7 tet+/CD8- quadrant” value amounted to 16.7%.

As for B8, the “% cells E7 tet+/CD8+ quadrant” value came to 7.84% and the “% cells E7 tet+/CD8- quadrant” value came out at 1.37%.

As for B9, the “% cells E7 tet+/CD8+ quadrant” value turned out to be 1.98% and the “% cells E7 tet+/CD8- quadrant” value is 0.71%.

As to B10, the “% cells E7 tet+/CD8+ quadrant” value was 5.54% and the “% cells E7 tet+/CD8- quadrant” value was found to be 3.06%.

Consider B11, for which the “% cells E7 tet+/CD8+ quadrant” value amounted to 22.6% and the “% cells E7 tet+/CD8- quadrant” value stood at 14%.

With B12, the “% cells E7 tet+/CD8+ quadrant” value is 1.21% and the “% cells E7 tet+/CD8- quadrant” value amounted to 1.65%.

For B13, the “% cells E7 tet+/CD8+ quadrant” value came to 14.5% and the “% cells E7 tet+/CD8- quadrant” value turned out to be 7.18%.

B14: the “% cells E7 tet+/CD8+ quadrant” value amounted to 22.4% and the “% cells E7 tet+/CD8- quadrant” value stood at 16.9%.

Turning to B15, the “% cells E7 tet+/CD8+ quadrant” value is 2.96% and the “% cells E7 tet+/CD8- quadrant” value was 1.43%.
